± gives the uncertainty stated by the source.
Assay: amyloid nucleation score (Sup35N fusion, yeast selection) (log enrichment); library NNK1; higher = more nucleation; inactive = no reads after selection
Outline: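 The nucleation score is the DiMSum log enrichment of output over input reads, centred on the mode score of non-aggregating sequences. Only sequences with 100 or more input reads were scored, using Illumina sequencing of input and output plasmid inserts. Psi-negative yeast expressing Sup35N fused to peptides of 20 random codons were induced 24 hours with 100 μM copper sulfate and grown 7 days at 30°C on medium lacking adenine and uracil.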

Row | Substance | amyloid nucleation score
1 | DVSLNVNLYVHRFMCHQVPI | 0.515 ± 0.28
2 | YRVHVCQEWMGSWCCGCVKG | 2.54 ± 0.2
3 | VRLSFPKRLSISSAVCNRGS | 0.279 ± 0.62
4 | RVLRIVEAVVVSSCGFVDLR | 1.69 ± 0.25
5 | IRSEDKITFPGLCKSRLELV | 0.845 ± 0.67
6 | WILPNNRMVFVLYTEQWWTF | 2.33 ± 0.11
7 | INTFARRAVVSSLSWSLACH | 0.317 ± 0.64
8 | SQYSADSVHGCHLSVSPTWF | 1 ± 0.81
9 | VPIVGDLEKVMGCYSYWANK | -0.011 ± 0.18
10 | GFISIGP | -0.068 ± 0.29
11 | ACYGLIDQLFQLANPYRTAM | 0.412 ± 0.32
12 | ACDRMGGVSGPDSAAVWPYI | -1.91 ± 2.7
13 | GVGSSFSTSKAYWVGYECIT | -0.217 ± 0.41
14 | EAGKLL | 0.309 ± 0.32
15 | GLLRLDRVNISALICHQVNV | 0.873 ± 0.62
16 | SRRSYSYFGIIICVNCSDTS | 8.583 ± 0.057
17 | KDRWTCSFVAVCMRYLFAKS | 0.134 ± 0.46
18 | SGMHHHDKARNRG | 1.26 ± 0.59
19 | ISEKRISMCGIRNKYIWGHG | -0.953 ± 1.1
20 | RAGIFKEYCSFATVKYVKDN | -1.04 ± 0.39
21 | AQGVNSFCIEVFHCEGVMDP | -0.003 ± 0.38
22 | VLMVPWVDGSCSS | -1.06 ± 1.3
23 | FKRCKRIPDPQSIGSRHFGA | 0.568 ± 0.58
24 | CMLREPKRKYPVKIMCSLLV | inactive
25 | PFTCCAVVPFSVTFSRVLES | inactive

Row | Substance | amyloid nucleation score
26 | DDVGSTRYTTMGEACQGRPA | -1.13 ± 0.8
27 | TSGSGINITL | inactive
28 | NYFFAAACKKVVQGQPCSF | 1.59 ± 0.29
29 | SRAWWVKEFRGVKEVIQVRF | 0.488 ± 0.56
30 | DSRFHSLGVLAHMPRDCNCG | 0.853 ± 0.86
31 | IILWAWCKTGGDGIPSGVVL | 0.342 ± 0.23
32 | CVFVRMMCTRFAAHHCVLSG | -0.143 ± 1.2
33 | VLKCRERRFRIHGHWTRRGP | -0.63 ± 0.47
34 | WEVERDTSSPSEIVINR | -0.063 ± 0.89
35 | SVHKWSSKTAMSLRTTYK | 0.284 ± 0.69
36 | PILCGTSLSQINDYYGV | -0.369 ± 0.56
37 | AYHNDWR | -0.85 ± 0.76
38 | RCMFAYLRVMDCNGGNVYPV | 0.409 ± 0.21
39 | RSRAISIKWCIGVGHPGNWV | inactive
40 | SRGTGRARDAAA | -0.488 ± 1.1
41 | HWFESDFAI | inactive
42 | GCIWWPTDRPLLLSPAMSYS | 0.133 ± 0.37
43 | CFSLLNYSCFSCIDLFHPLY | 5.23 ± 0.084
44 | YVPPSMMLNGGDPEYSVGLK | 0.082 ± 0.89
45 | VRLLTFDITSLFRVFYVKHR | 0.103 ± 0.67
46 | NRIKWVKRFSIPFLTWYEDW | 0.499 ± 0.53
47 | NNSSHGCRNVRNSQMSFVPQ | -0.165 ± 0.75
48 | LTVMMLGFGHVQCMS | -0.003 ± 0.26
49 | NCYLLFFCRLSSLSYAYQVY | -0.815 ± 1.2
50 | VLLTR | 0.505 ± 0.36

Row | Substance | amyloid nucleation score
51 | AQFFVLSSLW | -0.085 ± 0.93
52 | GTREPDFGCKLDWDSY | 0.924 ± 0.25
53 | MIWAEQCVMWPGACVMVIK | 4.64 ± 0.09
54 | EPYDSLGYPNEDLGTGVFWG | -1.72 ± 2.7
55 | RVYYLMDLIACCPYSLGHRN | 8.606 ± 0.051
56 | RLAGKHKRTDTRSKRTPVLR | 0.495 ± 0.47
57 | AMQYYIHQLVVDLSGLM | 6.57 ± 0.077
58 | FGSRQVYWSRRMIVQGQVMK | -0.837 ± 0.71
59 | KESECITS | -0.849 ± 0.75
60 | GTIWYITLAGRFNDVIIYTM | 2.4 ± 0.077
61 | CSLSRVNHDLMVKDSSKEQR | 4.3 ± 0.073
62 | PSRLIYDYAAFTVVGLLEMF | -0.235 ± 0.56
63 | RTLSWFRRKIIVLYLYYTHS | -0.272 ± 0.88
64 | SEVSISGVVYFDHREVVEV | -0.165 ± 1.4
65 | CLSDGTMAFPCPGRQDVRTV | -0.015 ± 0.34
66 | SYPCTVHTKGWLVFTCGVCI | 0.32 ± 0.73
67 | VAYSVI | 1.02 ± 0.66
68 | SLIKLVYWSHARNNCELW | 3.5 ± 0.074
69 | FCLNLQYRSKMMHRANICL | 0.159 ± 0.17
70 | SGCGPNGIRFWVRLEVGNTT | 0.016 ± 0.33
71 | RAMVLCGGCTWPAREDNEKV | 0.506 ± 0.33
72 | TWVVTHPPTM | 0.359 ± 0.55
73 | IASVQLS | 1.16 ± 0.53
74 | VRGVARYNRKFGDCFYPTHG | 0.065 ± 1.5
75 | QNPRIKFIQHVPIYNEGTLP | 1.17 ± 0.43

Row | Substance | amyloid nucleation score
76 | ERENAYPSIMLVCV | -0.092 ± 0.32
77 | ALMDKDLCLNMSGQKSLWFR | 0.073 ± 0.48
78 | GSCLIRASFQVHMILSSGHL | inactive
79 | REANNPCRVNTKSIVVRLEV | -0.787 ± 0.32
80 | WSRHELWWVPCCDRMLVLGH | 0.746 ± 0.9
81 | PALFVCSSFKLFMPNILGNQ | 6.16 ± 0.063
82 | HSRRCYNESS | 1.7 ± 0.55
83 | TDFMVGCVNMRRSESVWYC | 0.767 ± 0.39
84 | LFKNRVRLLLHERSLLPVII | 0.469 ± 0.68
85 | QTGKRYGTFLGYDGLEGRPD | -0.502 ± 0.55
86 | LVELNIGTTLCWQMRLRNVG | -0.037 ± 1.7
87 | TTDSVDDTRKYAYGFIACGV | 0.114 ± 0.47
88 | PAHKLILFPPCCVGVWYSER | inactive
89 | GIFSNLEVGYKPKN | -0.694 ± 0.39
90 | YCASFRINVIFV | 3.79 ± 0.086
91 | DSSLRDKYVTKNVFIFSMSG | 4.71 ± 0.063
92 | IASECWET | -0.391 ± 0.52
93 | LAGNVS | 0.503 ± 0.67
94 | TISGNVSCQKYSRLCVQGLS | 0.449 ± 0.25
95 | FSSCLTMRLV | -0.365 ± 1.6
96 | VFSFLPSYGHKCTAKQFFSA | -0.3 ± 1.4
97 | IRGTFRVSYGNGKCNSVMNY | 0.201 ± 0.42
98 | FTRKEVVPMWDKEDRVCIGD | 0.02 ± 0.74
99 | KVSEDMYSHFQQSFSQAIIV | inactive
100 | NNHFFMILYINKMVYMILKV | 0.38 ± 0.52

Row | Substance | amyloid nucleation score
101 | FWEYSSRNPQSHYTVLRSKV | -0.509 ± 0.32
102 | SHREMPSPIGMVSSSFMRVT | 0.539 ± 0.9
103 | NSPPSDHSLKV | -0.195 ± 1.4
104 | NAVTFLHIVLRENNHGRMHK | 6.21 ± 0.073
105 | MRVLDTNSGLMTITPFPVHS | -0.574 ± 0.67
106 | FNRNRIGGEIVMSNNYMYHS | 1.58 ± 0.33
107 | VGVMFG | -0.06 ± 0.69
108 | FYEASDRGERLEQKLKLTVL | 1.51 ± 0.49
109 | FICQDVNICCSL | 7.305 ± 0.052
110 | KNMAYHDSLDSVYPAVG | 0.32 ± 0.57
111 | TFVDGGSFSENVVVMIRFYH | 4.99 ± 0.064
112 | VGPIFLHTLRRSVN | -0.532 ± 0.83
113 | RLHSKRAHTRS | inactive
114 | WCRDIPWMVLNTVGRY | -0.547 ± 0.63
115 | GVQAVSSPTSVFK | 0.462 ± 0.85
116 | LRSFW | inactive
117 | CGLLVVLRANVFILCGYK | 0.399 ± 0.24
118 | KDMDSFSTTCLLLRLRGRTG | 0.053 ± 0.35
119 | FVVSLECTTRRVGLGALC | inactive
120 | DQYIGGFGFNYETFVTRNLV | -0.861 ± 0.49
121 | LCYAGVVLQYVILDHKRSCD | 6.233 ± 0.059
122 | MMIWNSNSEQVRCIIGMPWL | 4.79 ± 0.085
123 | RSGVVIVVLSVYGSSQRARG | -0.108 ± 0.4
124 | YVVCYFDNLFLSSISLSLRA | 8.521 ± 0.058
125 | FNKQFCK | 0.776 ± 0.44

Row | Substance | amyloid nucleation score
126 | FHVLG | -1.35 ± 2.7
127 | PLSVFTTPPSDHCDIKGKIE | -0.852 ± 2.1
128 | EYSIIYCICH | 3.08 ± 0.14
129 | GHVVLFLLYDLSFYSNIFCA | 0.712 ± 0.19
130 | FHRVDGVDCRTMYEGV | -0.937 ± 0.72
131 | EKFGRRCCSFGRSVSEWVTK | 0.999 ± 0.66
132 | LGKQAMC | -1.34 ± 2.4
133 | NACFRYKAKMDRMSTRGANS | 1.88 ± 0.39
134 | GFSRQSTWMCRKWSTNPRTW | 1.15 ± 0.34
135 | ETRTHWVRLAANNNFH | 0.135 ± 0.88
136 | MLLFSSVITVMFFGTSIHDG | -0.101 ± 1.2
137 | IIICFRTWLTCSFCFDSAPC | 0.227 ± 0.49
138 | HMSWMYEWMNVTCKVNMCR | 2.06 ± 0.24
139 | IEVGIVGNLS | inactive
140 | KVGLSMKYRPYS | 2.29 ± 0.22
141 | HSHHGSSV | 1.08 ± 0.76
142 | TGSHLPRDGSVSKCVFRY | 0.248 ± 0.53
143 | YVFVWMRYTSFWVMNTFYSS | 0.193 ± 0.46
144 | DAIPFMFPNLMVMK | 0.155 ± 0.55
145 | FPFFLMCMSSGFYSV | 2.35 ± 0.25
146 | DNVLALDGWNLINCLTT | 0.155 ± 0.37
147 | TFYEMPFIFDLCYRWLTVTG | 1.34 ± 0.65
148 | YCQCVCFSAMYSKTSRLNMG | 6.744 ± 0.066
149 | LRLIV | 0.113 ± 0.89
150 | SRWPTHGSQIFVLTESVLTN | 0.062 ± 0.55

Row | Substance | amyloid nucleation score
151 | DVSNTVFFTLLYLLGPRCRS | 0.721 ± 0.38
152 | FQGMYWNGFSSSSMSAATPR | 0.157 ± 0.52
153 | DRTRLVSHHTRIVRRWAHVY | 0.064 ± 0.65
154 | RHSGDFLVFMYKGVLVWSTG | 3.24 ± 0.092
155 | YYLSLGLKLMSMVPVKSTY | inactive
156 | LGTTDPYVYSIIMYAFLWIY | 0.386 ± 0.47
157 | KWIGIYINFDGYSVGS | 7.598 ± 0.044
158 | YYLDGTGLWVNCVRMARGCG | 1.16 ± 0.78
159 | FSSSTRSLNNPLL | 0.006 ± 0.44
160 | SFTGVDHSQLNDFSATNNAS | 0.653 ± 0.55
161 | NCFRLILFVLSDHRQWCFES | -1.78 ± 1.7
162 | VPVWFSTSISQWSNLQ | -1.09 ± 2.4
163 | FCICNRKRHNPSPEKKNA | -1.36 ± 0.91
164 | YKKRMLSLWYYGAGIQHRAL | 0.412 ± 0.43
165 | GVPDFA | 0.685 ± 0.7
166 | IYNGVTGRYWTSHI | -0.989 ± 0.7
167 | TCIDVQQYDCLVFFYFLHGF | inactive
168 | IAPMSRRFEGMACSFTDEEA | inactive
169 | VIMCVSRCTVRCV | 0.486 ± 0.52
